Experimental findings from publication PMC4497409 are described below.

This assay concerns the target T1, Norrin (Norrie Disease Protein), recombinant wild-type after removal of the SUMO fusion tag (human), Q00604.
T1 chain: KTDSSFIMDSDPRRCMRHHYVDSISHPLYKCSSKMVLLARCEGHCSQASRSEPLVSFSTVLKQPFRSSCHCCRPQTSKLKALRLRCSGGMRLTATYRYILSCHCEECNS
Description: SAXS; Norrin at 0.75 and 1.26 mg/ml in 10 mM HEPES, pH 7.5, 0.7 M NaCl, 0.5% CHAPS; 293 K. The following applies: remark: other sources report otherwise.

B1: Norrin (Norrie Disease Protein), recombinant wild-type after removal of the SUMO fusion tag, Q00604 25-133 (ligand)
chain: T1 chain
On to B1, for which the stoichiometry N was 2.
